For one test, the system named is HEK293 cells. In words: MEKK1 staining and TdT-mediated dUTP incorporation (DNA fragmentation) in transfected cells. Format: cell-based, Human. Here is the method: Human embryonal kidney 293 cells (HEK293) stably expressing the EBNA-1 protein from Epstein-Barr virus (Invitrogen) were grown in Dulbecco's modified Eagle's medium (DMEM) supplemented with 100 U/ml penicillin/streptomycin and containing 10% bovine calf serum (BCS). The cells were transfected using lipofectamine (Gibco).
Cells were grown on glass coverslips and transfected using lipofectamine. Two days after transfection, the medium was removed and the cells were fixed in 2% paraformaldehyde, 3% sucrose in phosphate buffered saline (PBS) for 10 min at room temperature. Following three washes with PBS, the cells were permeabilized for 10 min with 2% Triton-X100 in PBS. After three PBS washes, the cells were blocked with filtered cultured medium for 15 min. The coverslips were then incubated 1 hour in TdT reaction mix (200 mM potassium cacodylate, 25 mM Tris.HCl, pH 6.6, 250 μg/ml BSA, 5 mM CoCl2, 0.25 U/μl TdT [Boehringer], 10 μM biotin-dUTP [Boehringer]) at 37° C. in a humidifed atmosphere. […] The coverslips were then washed 6× over a 30 min period with PBS and incubated 1 hour at room temperature with a 1/1000 dilution in filtered culture medium of a donkey anti-rabbit, Cy^3-conjugated, antibody (Jackson Immunological) mixed with 5 μg/ml streptavidin conjugated with FITC (Jackson Immunological). The coverslips were washed 6× with PBS and incubated overnight in PBS before being mounted in 20 mg/ml o-phenyldiamine-diHCl (Sigma) in 0.1 M Tris pH 8.5, 90% glycerol. Images were taken using a Leica DMRXA microscope and analyzed with the SlideBook v2.0 software (Intelligent Imaging Innovations, Denver). The subcellular localization of endogenous MEKK1 observed with the anti-COOH-terminal MEKK1 antibody was identical to that observed with a second antibody recognizing the NH2-terminal portion of the MEKK1 protein.

Test [1] concerns MEKK1. In words: Immunoblot of cleavage fragments of transfected HA-tagged MEKK1 in HEK293 cells. It counts as cell-based, Human. The following applies: mutants transfected into HEK293 cells. From the text: The full length cDNA encoding mouse MEKK1 was modified by addition of the HA-tag sequence ([…]) (SEQ ID NO: 12) at its NH2-terminus and inserted into the expression plasmid pCEP4 (Invitrogen), resulting in plasmid MEKK1.cp4. The MEKK1 sequences DTVD (amino acids 871-874) and DEVE (amino acids 857-860) in MEKK1.cp4 were substituted with alanines using a PCR strategy. The resulting plasmids were named DTVD_A.cp4 and DEVE_A.cp4. The cDNAs for CrmA (Pickup et al., 1986), p35 (Cartier et al., 1994), JNK1-APF (Dérijard et al., 1994) and JNK2-APF (Kallunki et al., 1994) were subcloned in pCEP4 in which the hygromycin resistance gene had been removed, resulting in plasmids CrmA.cp_, p35.cp_, JNK1_APF.cp and JNK2_APF.cp_. Plasmid pCDNA—3.cp4 is the result of the ligation of pCEP4 and pCDNA-3.
200-400 μg cell lysate protein was subjected to SDS-9% PAGE and transferred to nitrocellulose membranes. Blots were performed exactly as described (Widmann et al., 1995). To detect HA-tagged proteins, the mouse monoclonal antibody 12CA5 (Babco) was used as the primary antibody, followed by a rabbit anti-mouse antibody (Cappel). HRP-conjugated protein A at a 1/5000 dilution (Zymed) and ^125I-protein A at a 1/500 dilution (Dupont NEN) were then used for enhanced chemiluminescence (ECL) detection and for quantification using the phosphorimager. To detect MEKK1, 3 different ploclonal antisera were used as primary antibodies, followed by ECL detection using HRP-protein A (see above). These sera were generated by injecting rabbits with GST proteins fused with different portions of the MEKK1 protein.
(In general: Immunoblotting shows a protein as a band on a membrane.)

Test [2] has as its system MEKK1. In words: SEK1 K→M phosphorylation by MEKK1 immunoprecipitates. It counts as biochemical, mouse. The following applies: HEK293 lysates; 95-012 antibody. Here is the method:
MEKK1 was immunoprecipitated from cell lysates (200-500 μg) with the antibodies raised against specific sequences of MEKK1 or the 12CA5 antibody that recognizes the HA-tag sequence.

For the next test, the system named is c-Jun kinase (JNK). In words: c-Jun kinase assay, transfected HEK293 cells. It counts as cell-based, Human. Conditions: expression in HEK293 cells. On the procedure:
Lysis buffer (70 mM β-glycerophosphate, 1 mM EGTA, 100 μM Na3VO4, 1 mM DTT, 2 mM MgCl2, 0.5% Triton-X100, 20 μg/ml aprotinin) was added to cells 15-24 hours after transfection. Cellular debris was removed by centrifugation at 8,000xg for 5 min. Protein concentration was normalized by Bradford assay using BSA as standard.
c-Jun kinase (JNK) activity was measured using a solid phase kinase assay in which glutathione S-transferase-c-Jun(1-79) (GST-Jun) bound to glutathione-Sepharose 4B beads was used to affinity-purify JNK from cell lysates as described (Gardner and Johnson, 1996; Hibi et al., 1993). Alternatively, JNKI or JNK2 were immunoprecipitated with isoform specific antibodies (Santa Cruz Biotechnology) and GST-Jun used as substrate in an in vitro kinase assay (Hibi et al., 1993). Quantitation of the phosphorylation of GST-Jun was performed with a Phosphorlmager.

B1: DTVD→A: MEKK1 mutant with DTVD (amino acids 871-874) substituted with alanines (protein, UniProt P53349 2-1493, looked up, variant D871A T872A V873A D874A)
Mitogen-activated protein …: AAAAGDRASSSGFPGAAAASPEAGGGGGGGGALQGSGAPAAGAAGLLREPGSAGRERADWRRRQLRKVRSVELDQLPEQPLFLAAASPPCPSTSPSPEPADAAAGASRFQPAAGPPPPGAASRCGSHSAELAAARDSGARSPAGAEPPSAAAPSGREMENKETLKGLHKMEDRPEERMIREKLKATCMPAWKHEWLERRNRRGPVVVKPIPIKGDGSEVNNLAAEPQGEGQAGSAAPAPKGRRSPSPGSSPSGRSVKPESPGVRRKRVSPVPFQSGRITPPRRAPSPDGFSPYSPEETSRRVNKVMRARLYLLQQIGPNSFLIGGDSPDNKYRVFIGPQNCSCGRGAFCIHLLFVMLRVFQLEPSDPMLWRKTLKNFEVESLFQKYHSRRSSRIKAPSRNTIQKFVSRMSNSHTLSSSSTSTSSSENSIKDEEEQMCPICLLGMLDEESLTVCEDGCRNKLHHHCMSIWAEECRRNREPLICPLCRSKWRSHDFYSHELSSPVESPASLRAVQQPSSPQQPVAGSQRRNQESSFNLTHFGTQQIPSAYKDLAEPWIQVFGMELVGCLFSRNWNVREMALRRLSHDVSGALLLANGESTGNSGGGSGGSLSAGAASGSSQPSISGDVVEACCSVLSIVCADPVYKVYVAALKTLRAMLVYTPCHSLAERIKLQRLLRPVVDTILVKCADANSRTSQLSISTVLELCKGQAGELAVGREILKAGSIGVGGVDYVLSCILGNQAESNNWQELLGRLCLIDRLLLEFPAEFYPHIVSTDVSQAEPVEIRYKKLLSLLTFALQSIDNSHSMVGKLSRRIYLSSARMVTAVPAVFSKLVTMLNASGSTHFTRMRRRLMAIADEVEIAEVIQLGVEAAAAGHQDSLQAVAPTSCLENSSLEHTVHREKTGKGLSATRLSASSEDISDRLAGVSVGLPSSTTTEQPKPAVQTKGRPHSQCLNSSPLSHAQLMFPAPSAPCSSAPSVPDISKHRPQAFVPCKIPSASPQTQRKFSLQFQRNCSEHRDSDQLSPVFTQSRPPPSSNIHRPKPSRPVPGSTSKLGDATKSSMTLDLGSASRCDDSFGGGGNSGNAVIPSDETVFTPVEDKCRLDVNTELNSSIEDLLEASMPSSDTTVTFKSEVAVLSPEKAENDDTYKDDVNHNQKCKEKMEAEEEEALAIAMAMSASQDALPIVPQLQVENGEDIIIIQQDTPETLPGHTKAKQPYREDAEWLKGQQIGLGAFSSCYQAQDVGTGTLMAVKQVTYVRNTSSEQEEVVEALREEIRMMGHLNHPNIIRMLGATCEKSNYNLFIEWMAGGSVAHLLSKYGAFKESVVINYTEQLLRGLSYLHENQIIHRDVKGANLLIDSTGQRLRIADFGAAARLASKGTGAGEFQGQLLGTIAFMAPEVLRGQQYGRSCDVWSVGCAIIEMACAKPPWNAEKHSNHLALIFKIASATTAPSIPSHLSPGLRDVAVRCLELQPQDRPPSRELLKHPVFRTTW
With B1, the “reduction in number of expressing cells showing DNA fragmentation” value in the test with HEK293 cells (compared to wild-type MEKK1 or the DEVE→A mutant) is recorded as 65%. Moreover, the DNA fragmentation result with HEK293 cells (expression in HEK293 cells) is reported as “little DNA fragmentation”. Besides, in the test with MEKK1 [1], the “MEKK1 cleavage fragments generated” value is “only cleaved into fragments A and D”. The “SEK1 phosphorylation by COOH-terminal antibody immunoprecipitates” value in the test on MEKK1 [2] is reported as “reduced”. Besides, the JNK activation entry with c-Jun kinase (JNK) was “activated JNK to the same level as wild type MEKK1”.

(Values after patent US20020055130A1, “Method and product for regulating apoptosis” (National Jewish Center for Immunology and Respiratory …, priority 1997, published 2002).)
